According to patent publication US20250346679A1 (INVOX PHARMA, published 2025):

T1: cynomolgus CD137, cell-surface (cynomolgus, UniProt Q07011 24-255 (human entry))
T1 chain: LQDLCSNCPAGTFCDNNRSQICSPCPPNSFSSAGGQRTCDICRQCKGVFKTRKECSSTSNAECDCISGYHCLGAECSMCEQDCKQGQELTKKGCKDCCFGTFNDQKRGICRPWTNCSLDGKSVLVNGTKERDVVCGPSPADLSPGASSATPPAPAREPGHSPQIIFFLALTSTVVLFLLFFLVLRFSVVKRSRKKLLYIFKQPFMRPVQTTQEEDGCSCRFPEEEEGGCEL

T2: cCD137-mFc-Avi (cynomolgus; mouse)
T2 construct: also called cynomolgus CD137-mFc-Avi; Cyno CD137-mFc-Avi; not shown: mouse IgG2a Fc domain (mIgG2a Fc)
T2 chain: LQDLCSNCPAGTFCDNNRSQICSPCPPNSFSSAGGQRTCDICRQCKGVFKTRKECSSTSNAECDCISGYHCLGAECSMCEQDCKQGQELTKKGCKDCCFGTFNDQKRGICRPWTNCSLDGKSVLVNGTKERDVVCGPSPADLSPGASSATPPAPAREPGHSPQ

B1: FS22-172-003-AA/E05v2 (bispecific antibody, human IgG1, kappa, L234A L235A)
heavy: EVQLVQSGAEVKRPGASVKVSCKASGYTFTSYGISWVRQAPGQGLEWMGWISAYSGGTNYAQKLQGRVTMTTDTSTSTAYMELRSLRSDDTAVYYCARDLFPTIFGVSYYYYWGQGTLVTVSSASTKGPSVFPLAPSSKSTSGGTAALGCLVKDYFPEPVTVSWNSGALTSGVHTFPAVLQSSGLYSLSSVVTVPSSSLGTQTYICNVNHKPSNTKVDKKVEPKSCDKTHTCPPCPAPEAAGGPSVFLFPPKPKDTLMISRTPEVTCVVVDVSHEDPEVKFNWYVDGVEVHNAKTKPREEQYNSTYRVVSVLTVLHQDWLNGKEYKCKVSNKALPAPIEKTISKAKGQPREPQVYTLPPSRDELPYIIPPYNQVSLTCLVKGFYPSDIAVEWESNGQPENNYKTTPPVLDSDGSFFLYSKLTVGADRWLEGNVFSCSVMHEALHNHYTQKSLSLSPG
light: DIQMTQSPSTLSASVGDRVTITCRASQSISGRLAWYQQKPGKAPNLLIYEASNLESGVPSRFSGSGSGTEFTLTISSLQPEDFATYYCQQSYSTPRVTFGQGTKVEIKRTVAAPSVFIFPPSDEQLKSGTASVVCLLNNFYPREAKVQWKVDNALQSGNSQESVTEQDSKDSTYSLSSTLTLSKADYEKHKVYACEVTHQGLSSPVTKSFNRGEC
B2: FS22-172-003-AA/G12v2 (bispecific antibody, human IgG1, kappa, L234A L235A)
heavy: EVQLVQSGAEVKRPGASVKVSCKASGYTFTSYGISWVRQAPGQGLEWMGWISAYSGGTNYAQKLQGRVTMTTDTSTSTAYMELRSLRSDDTAVYYCARDLFPTIFGVSYYYYWGQGTLVTVSSASTKGPSVFPLAPSSKSTSGGTAALGCLVKDYFPEPVTVSWNSGALTSGVHTFPAVLQSSGLYSLSSVVTVPSSSLGTQTYICNVNHKPSNTKVDKKVEPKSCDKTHTCPPCPAPEAAGGPSVFLFPPKPKDTLMISRTPEVTCVVVDVSHEDPEVKFNWYVDGVEVHNAKTKPREEQYNSTYRVVSVLTVLHQDWLNGKEYKCKVSNKALPAPIEKTISKAKGQPREPQVYTLPPSRDELPYIIPPYNQVSLTCLVKGFYPSDIAVEWESNGQPENNYKTTPPVLDSDGSFFLYSKLTVGADRWLEGNVFSCSVMHEALHNHYTQKSLSLSPG
light: DIQMTQSPSTLSASVGDRVTITCRASQSISGRLAWYQQKPGKAPNLLIYEASNLESGVPSRFSGSGSGTEFTLTISSLQPEDFATYYCQQSYSWPRTFGQGTKVEIKRTVAAPSVFIFPPSDEQLKSGTASVVCLLNNFYPREAKVQWKVDNALQSGNSQESVTEQDSKDSTYSLSSTLTLSKADYEKHKVYACEVTHQGLSSPVTKSFNRGEC
B3: FS22-053-008-AA/E05v2 (bispecific antibody, human IgG1, kappa, L234A L235A)
heavy: EVQLVQSGAEVKRPGASVKVSCKASGYTFTSYGISWVRQAPGQGLEWMGWISAYSGGTNYAQKLQGRVTMTTDTSTSTAYMELRSLRSDDTAVYYCARDLFPTIFGVSYYYYWGQGTLVTVSSASTKGPSVFPLAPSSKSTSGGTAALGCLVKDYFPEPVTVSWNSGALTSGVHTFPAVLQSSGLYSLSSVVTVPSSSLGTQTYICNVNHKPSNTKVDKKVEPKSCDKTHTCPPCPAPEAAGGPSVFLFPPKPKDTLMISRTPEVTCVVVDVSHEDPEVKFNWYVDGVEVHNAKTKPREEQYNSTYRVVSVLTVLHQDWLNGKEYKCKVSNKALPAPIEKTISKAKGQPREPQVYTLPPSRDELNPPYLFSNQVSLTCLVKGFYPSDIAVEWESNGQPENNYKTTPPVLDSDGSFFLYSKLTVDYWRWLEGNVFSCSVMHEALHNHYTQKSLSLSPG
light: DIQMTQSPSTLSASVGDRVTITCRASQSISGRLAWYQQKPGKAPNLLIYEASNLESGVPSRFSGSGSGTEFTLTISSLQPEDFATYYCQQSYSTPRVTFGQGTKVEIKRTVAAPSVFIFPPSDEQLKSGTASVVCLLNNFYPREAKVQWKVDNALQSGNSQESVTEQDSKDSTYSLSSTLTLSKADYEKHKVYACEVTHQGLSSPVTKSFNRGEC

Key:
[1] = target: T3, biotinylated hPD-L1-Avi-His (Acro Biosystems, PD1-H82E5) (human, UniProt Q9NZQ7 19-238, biotinylated); assay: SPR, mAb^2 captured on Protein A chip, antigen in flow
T3 construct: bought; also called Human PD-L1-His; not shown: Avi and His tags of the bought product
T3 sequence (Q9NZQ7 19-238): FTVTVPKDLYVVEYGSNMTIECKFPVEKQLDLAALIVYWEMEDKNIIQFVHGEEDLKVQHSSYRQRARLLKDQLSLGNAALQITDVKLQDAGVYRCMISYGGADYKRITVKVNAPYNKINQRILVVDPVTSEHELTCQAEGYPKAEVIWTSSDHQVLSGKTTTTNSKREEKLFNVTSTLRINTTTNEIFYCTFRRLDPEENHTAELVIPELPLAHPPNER
Description: (§1) Briefly, the anti-human CD137/PD-L1 mAb², diluted in HBS-EP buffer (GE Healthcare, BR100188) at 2 μg/ml, were injected individually on flows cell 2, 3 and 4 of a Protein A chip (GE Healthcare, 29127556) at 30 μl/min to achieve a final response of approximately 110 RU. Two different recombinant human PD-L1 antigens were used i.e. hPD-L1-His-Avi (see Example 1.3 for antigen details) and biotinylated hPD-L1-Avi-His (Acrobiosystems, PD-1-H82E5). Human and cynomolgus PD-L1-His (Acrobiosystems, PD-1-C52H4) antigens, diluted in HBS-EP buffer, were injected on flow cell 1, 2, 3 or 4 as appropriate at a concentration range of 81 nM to 0.037 nM with 3-fold dilutions for 4 min at 75 μl/min and then allowed to dissociate in buffer for 10 min. Regeneration was achieved by injecting 10 mM glycine-HCL pH1.5 (GE Healthcare, Human Antibody Capture Kit, BR00356) for 30 sec at a rate of 30 μl/min. Subtracted data (flow cell 2−flow cell 1, flow cell 3−flow cell 1, or flow cell 4−flow cell 1) were analysed using BIAevaluation 3.2 Software (GE Healthcare) to identify binding using the model 1:1 binding with mass transfer, with refractive index (RI) constant 0.

[2] = target: T4, cPD-L1-His (Acro Biosystems, PD1-C52H4) (cynomolgus, UniProt Q9NZQ7 19-238 (human entry)); assay: as above
T4 construct: bought; also called Cyno PD-L1-His; Cynomolgus PD-L1-His; not shown: His tag of the bought product
T4 sequence (Q9NZQ7 other isoform, or with tags, fused parts or gaps): as the sequence (Q9NZQ7 19-238) above, with A33T, A34S, S62N, R68Q, Q82R, F173L, T185A, T192I, H215L counted along it
Description: as §1

[3] = target: T1, cynomolgus CD137, cell-surface; assay: cell-based or functional assay
[4] = target: human PD-L1, cell-surface (human, UniProt Q9NZQ7 19-290); assay: cell-based or functional assay
Chain of human PD-L1, cell-surface (Q9NZQ7 19-290): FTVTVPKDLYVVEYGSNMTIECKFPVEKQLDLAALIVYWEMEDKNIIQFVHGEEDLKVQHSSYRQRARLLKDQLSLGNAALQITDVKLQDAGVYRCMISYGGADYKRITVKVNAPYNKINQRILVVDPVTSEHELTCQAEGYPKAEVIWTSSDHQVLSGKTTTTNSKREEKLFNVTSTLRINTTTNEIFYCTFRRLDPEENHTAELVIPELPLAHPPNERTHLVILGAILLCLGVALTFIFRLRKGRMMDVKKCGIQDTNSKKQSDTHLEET

[5] = target: human CD137, cell-surface (human, UniProt Q07011 24-255); assay: cell-based or functional assay
hCD137-mFc-Avi = target: T5, hCD137-mFc-Avi (human; mouse, UniProt Q07011 24-186, biotin on the Avi sequence where the biotinylated form was used); assay: SPR, mAb^2 captured by anti-human Fab, antigen in flow
T5 construct: also called human CD137-mFc-Avi; dimeric human CD137; not shown: mouse IgG2a Fc domain (mIgG2a Fc)
T5 sequence (Q07011 24-186): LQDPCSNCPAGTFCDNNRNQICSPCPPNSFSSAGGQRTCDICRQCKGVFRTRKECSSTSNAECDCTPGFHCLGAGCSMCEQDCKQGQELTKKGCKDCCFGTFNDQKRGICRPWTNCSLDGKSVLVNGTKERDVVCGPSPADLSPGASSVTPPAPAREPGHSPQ
Description: (§2) The binding of the anti-human CD137/PD-L1 mAb² to recombinant dimeric human and cynomolgus CD137 antigens was also measured by SPR using a Biacore T200 processing unit (GE Healthcare).
(§3) Briefly, 20 μg/ml anti-human Fab antibody (GE Healthcare, Human Fab Capture kit 28958325) was coated on flow cells 1, 2, 3 and 4 of a Biacore sensor S chip CM5 (GE Healthcare, BR100530) achieving a final response of approximately 5000 RU. […] The recombinant dimeric antigens, human CD137-mFc-Avi or cynomolgus CD137-mFc-Avi (see Example 1.1 for antigen details) diluted in HBS-EP buffer, were injected on flow cell 1, 2, 3 or 4 as appropriate at a concentration range of 81 nM to 0.037 nM with 3-fold dilutions for 4 minutes at 70 μl/min and then allowed to dissociate in buffer for 10 minutes. Regeneration was achieved by injecting 10 mM glycine pH 2.1 (GE Healthcare, Human Fab Capture kit 28958325) for 60 seconds at a rate of 30 μl/min. Data analysis was performed as described in Example 9.1.

cCD137-mFc-Avi = target: T2, cCD137-mFc-Avi; assay: as above
Description: as §2, §3

Row | Binder | Kd [1] [nM] | Kd [2] [nM] | EC50 (nM) (crosslinked), mIL-2 release, DO11.10.cCD137 with HEK.cyPD-L1 [3] | Emax (pg/ml) (crosslinked), mIL-2 release, DO11.10.cCD137 with HEK.cyPD-L1 [3] [pg/mL] | EC50 (nM), IFN-γ release, human MLR [4] [nM] | Emax (pg/ml), IFN-γ release, human MLR [4] [pg/mL] | EC50 (nM), hIL-2 release, CD8+ T cells, donor 171115A, HEK.hPD-L1 XL [5] [nM] | EC50 (nM), hIL-2 release, CD8+ T cells, donor 171115A, MDA-MB-231 XL [5] [nM] | EC50 (nM), hIL-2 release, CD8+ T cells, donor 171115B, HEK.hPD-L1 XL [5] [nM] | EC50 (nM), hIL-2 release, CD8+ T cells, donor 171115B, MDA-MB-231 XL [5] [nM] | Kd (hCD137-mFc-Avi) [nM] | Kd (cCD137-mFc-Avi) [nM]
1 | B1 | 0.5 | 0.59 | 0.08 | 10500 | 0.03 | 2650 | 0.27 | 0.02 | 0.19 | 0.02 | 1.5 | 1
2 | B2 | 0.49 | 0.53 | 0.06 | 11200 | – | – | 0.21 | 0.02 | 0.22 | 0.01 | 2.2 | 1.8
3 | B3 | 0.47 | 0.58 | 0.06 | 8060 | 0.02 | 2800 | 0.16 | 0.01 | 0.11 | 0.02 | 2.8 | 1.1
